Measurements taken from patent US12090209B2, “Twin base linkers for virus inactivation” (priority 2020, dated 2024).
Where no end group is shown, it is not given here.

Molecular target: heat-inactivated SARS-CoV-2 spike (S) protein (Severe acute respiratory syndrome coronavirus 2, UniProt P0DTC2)

For “TBL-SADE: TBS monomer of Formula 1 wherein L=SADE (SEQ ID NO:2) peptide, no further targeting moieties (also: TBS monomer of Formula 1, L = SADE, functionalized)”, the “binding to SARS-CoV-2 spike (S) protein” value was “confirmed binding”.
